Read-outs that look alike come from different tables or passages of the source.
Experiments:
[1] = target: IL-2 receptor that is found on activated and functionally mature T cells, including abnormally activated leukemia cells (Homo sapiens (Human)) (UniProt P01589)
CD33 antigen (human) [2] = target: CD33 antigen (human) (UniProt P20138); assay: competition with 125I-labelled native antibody on HEL 92.1.7 cells; IC50 (reference) / IC50 (sample)
CD33 antigen (human) [3] = target: CD33 antigen (human) (UniProt P20138)
[4] = target: polyepithelial mucin (PEM) antigen on cells (human) (UniProt P15941)
CD33 antigen (human) [5] = target: CD33 antigen (human) (UniProt P20138); remark: listed apart in the source
CD33 antigen (human) [6] = target: CD33 antigen (human) (UniProt P20138); remark: listed apart in the source
CD33 antigen (human) [7] = target: CD33 antigen (human) (UniProt P20138); remark: listed apart in the source
CD33 antigen (human) [8] = target: CD33 antigen (human) (UniProt P20138); remark: listed apart in the source
CD33 antigen (human) [9] = target: CD33 antigen (human) (UniProt P20138); remark: listed apart in the source
CD33 antigen (human) [10] = target: CD33 antigen (human) (UniProt P20138); remark: listed apart in the source
CD33 antigen (human) [11] = target: CD33 antigen (human) (UniProt P20138); assay: competition with 125I-labelled native antibody on HEL 92.1.7 cells; IC50 (reference) / IC50 (sample); remark: listed apart in the source
CD33 antigen (human) [12] = target: CD33 antigen (human) (UniProt P20138); remark: listed apart in the source

Conjugate of 4-(4-acetylphenoxy)butanoic acid (7) condensed with calicheamicin N-acetyl gamma dimethyl hydrazide and anti-Tac (antibody)
Ex vivo IC50 (inhibition of D14 CFU-GM colony growth) [1]: 1 ng/mL | In vitro IC50 (3H-thymidine incorporation) [1]: 0.004 ng/mL

Conjugate of 4-formylphenoxyacetic acid (1) condensed with Calicheamicin N-acetyl gamma dimethyl hydrazide and m-P67.6 (antibody)
Rel. Affinity (CD33 antigen (human) [2]): 0.77 | Ex vivo inhibition of colony formation (CD33 antigen (human) [3]): 90 % inhibition | In vitro IC50 (3H-thymidine incorporation) (CD33 antigen (human) [3]): 0.068 ng/mL

Conjugate of 4-(4-acetylphenoxy)butanoic acid (7) condensed with Calicheamicin N-acetyl gamma dimethyl hydrazide and h-CT-M-01 (antibody)
In vitro IC50 (3H-thymidine incorporation) [4]: 0.048 ng/mL

Conjugate of 4-acetylbenzenebutanoic acid (19) condensed with Calicheamicin N-acetyl gamma dimethyl hydrazide and m-P67.6 (antibody)
Rel. Affinity (CD33 antigen (human) [2]): 0.42 | Ex vivo inhibition of colony formation (CD33 antigen (human) [5]): 99 % inhibition | In vitro IC50 (3H-thymidine incorporation) (CD33 antigen (human) [5]): 0.0082 ng/mL

Conjugate of 3-(2-oxoethoxy)benzoic acid (6) condensed with Calicheamicin N-acetyl gamma dimethyl hydrazide and m-P67.6 (antibody)
In vitro IC50 (3H-thymidine incorporation) (CD33 antigen (human) [6]): 0.32 ng/mL | Rel. Affinity (CD33 antigen (human) [2]): 1.91

Conjugate of 6-formyl-2-naphthoic acid (4) condensed with Calicheamicin N-acetyl gamma dimethyl hydrazide and m-P67.6 (antibody)
Rel. Affinity (CD33 antigen (human) [2]): 0.73 | In vitro IC50 (3H-thymidine incorporation) (CD33 antigen (human) [7]): 0.047 ng/mL

Conjugate of 4-(4-acetylphenoxy)butanoic acid (7) condensed with Calicheamicin N-acetyl gamma dimethyl hydrazide and m-P67.6 (antibody)
Rel. Affinity (CD33 antigen (human) [2]): 0.96 | Ex vivo inhibition of colony formation (CD33 antigen (human) [8]): 98 % inhibition | In vitro IC50 (3H-thymidine incorporation) (CD33 antigen (human) [8]): 0.017 ng/mL

Conjugate of 4-formyl-3-methoxyphenoxyacetic acid (3) condensed with Calicheamicin N-acetyl gamma dimethyl hydrazide and m-P67.6 (antibody)
Rel. Affinity (CD33 antigen (human) [2]): 0.76 | Ex vivo inhibition of colony formation (CD33 antigen (human) [9]): 90 % inhibition | In vitro IC50 (3H-thymidine incorporation) (CD33 antigen (human) [9]): 0.12 ng/mL

Conjugate of 4-(2-oxoethoxy)benzenepropanoic acid (5) condensed with Calicheamicin N-acetyl gamma dimethyl hydrazide and m-P67.6 (antibody)
Rel. Affinity (CD33 antigen (human) [2]): 1.11 | Ex vivo inhibition of colony formation (CD33 antigen (human) [10]): 71 % inhibition | In vitro IC50 (3H-thymidine incorporation) (CD33 antigen (human) [10]): 0.45 ng/mL

B1: Conjugate of 4-formyl-3-methoxyphenoxyacetic acid (3) condensed with Calicheamicin N-acetyl gamma dimethyl hydrazide and h-P67.6 (antibody, V domains shown)
VH: EVQLVQSGAEVKKPGSSVKVSCKASGYTITDSNIHWVRQAPGQSLEWIGYIYPYNGGTDYNQKFKNRATLTVDNPTNTAYMELSSLRSEDTDFYYCVNGNPWLAYWGQGTLVTVSS
VL: DIQLTQSPSTLSASVGDRVTITCRASESLDNYGIRFLTWFQQKPGKAPKLLMYAASNQGSGVPSRFSGSGSGTEFTLTISSLQPDDFATYYCQQTKEVPWSFGQGTKVEVKR
modifications: drug-linker amide on lysine side chains, sites not stated; drug-linker amide on lysine side chains, sites not stated
Rel. Affinity (CD33 antigen (human) [11]): 0.81 | In vitro IC50 (3H-thymidine incorporation) (CD33 antigen (human) [12]): 0.3 ng/mL

Reference: patent US5773001 (American Cyanamid Company, dated 1998)
